Data taken from the supplement of paper PMC10201428.
± gives the standard deviation of the averaged measurements.

Columns and labels:
[1] = tested on: VchCAST RNA-guided transposition machinery (E. coli BL21(DE3) host, lacZ target); assay: relative integration efficiency (T-RL orientation) vs wild-type transposon end (log2 (normalized fold change)); transposon end mutated: right end (5 bp flank + 75 bp right end); higher = more efficient transposition
Summary of the method: (§1)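 Barcode abundances in input plasmids and in genomic integration junctions were obtained by PCR amplification and Illumina sequencing. These came from E. coli BL21(DE3) co-transformed with a T7-driven effector plasmid and a pUC57 donor carrying 1549 left-end or 1849 right-end transposon variants, then plated with 0.1 mM IPTG at 37°C for 18 h. Relative integration efficiency is the output/input fold change, normalised to reference barcodes and log-transformed.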

[2] = tested on: VchCAST RNA-guided transposition machinery (E. coli BL21(DE3) host, lacZ target); assay: relative integration efficiency (T-LR orientation) vs wild-type transposon end (log2 (normalized fold change)); transposon end mutated: right end (5 bp flank + 75 bp right end); higher = more efficient transposition
Summary of the method: as §1

Sequence | relative integration efficiency (log2) [1] | relative integration efficiency (log2) [2]
ACATTTGTTGATACAACCATAAAGTGATATTTACAACCATAAAGTGATATTTATCACAACCATATATTGATATCTCCTCTGATCATAGTCAGACCAACATTGCTACGACCCGTATTCGCACCGACAC | 0.115 ± 0.19 | 0.458 ± 0.14
ACATTTGTTGATACACCCATAAATTGATATTGCCAACCATAAAGTGATATTTATCACAACCATAAAATGATAATTACTCTGATCATAGTCAGACCAACATTGCTACGACCCGTATTCGCACCGACAC | -0.499 ± 0.21 | -0.362 ± 0.13
ACATTTGTTGATACAACCATAAAATGATAATTACACCCATAAATTGATAATTATCACACCCATAAATTGATATTGCCTCTGTACGATCCAGTGATCTCCAAGACGCTGCAAGAGTCCGCACCGACAC | 0.0556 ± 0.23 | -0.117 ± 0.38
ACATTTGTTGATACAACCATAAAATGATAATTACACCCATCAATTGATAATTATCCCACCCCATTTAACTATAACGCTCTGATCATAGTCAGACCAACATTGCTACGACCCGTATTCGCACCGACAC | -2.54 ± 0.3 | 1.52 ± 0.21
ACATTTGTTGATACAACCATAAAATGATAATTACACCCATAAATTGATAATTATCACACCCATAAATTGATATTGCCTCTGATCAGGAATTGTGAGCGGATAACAATTTAGTCAGACGCACCGACAC | 0.138 ± 0.16 | 0.397 ± 0.067
ACATTTGTTGATACACCCATAAATTGATAATTACAACCATAAAGTGATATTTATCACACCCATAAATTGATATTGCCTCTGATCATAGTCAGACCAACATTGCTACGACCCGTATTCGCACCGACAC | -0.477 ± 0.26 | -0.466 ± 0.18
ACATTTGTTGATACAACCATAAGTTGATATTTTCACCCATAAATTGATAATTATCACACCCATAAATTGATAATTACTCTGATCATAGTCAGACCAACATTGCTACGACCCGTATTCGCACCGACAC | 2.44 ± 0.29 | 2.73 ± 0.044
ACATTTGTTGATAGTACCATAAAATGATAATTACACCCATAAATTGATAATTATCACACCCATAAATTGATATTGCCTCTGATCATAGTCAGACCAACATTGCTACGACCCGTATTCGCACCGACAC | -0.367 ± 0.064 | -1.23 ± 0.17
ACATTTGTTGATACAACCATAAAATCATAATTACACCCATCAATTGATAATTATCACACCCAATTTAACTATAACGCTCTGATCATAGTCAGACCAACATTGCTACGACCCGTATTCGCACCGACAC | -4.01 ± 0.22 | -0.27 ± 0.36
ACATTTGTTGATACCACCATAAAATGGTAATTCCACCCATAAATTGATAATTATCACACCCAATTTAACTATAACGCTCTGATCATAGTCAGACCAACATTGCTACGACCCGTATTCGCACCGACAC | -1.38 ± 0.23 | 2.06 ± 0.076
ACATTTGTTGATACAACCATAAAATGATAATTACACCCATAAATTGATAATTATCACACCCATAACGGTCGCGGTAAGAGGATCATAGTCAGACCAACATTGCTACGACCCGTATTCGCACCGACAC | -0.752 ± 0.12 | 2.14 ± 0.13
ACATTTGTTGATAACCAACGCCCCGTCGCCGGCACAAACGCCCGGTCGCCGGCTCAACAAACGCCCGGTCGCGGTACTCTGATCATAGTCAGACCAACATTGCTACGACCCGTATTCGCACCGACAC | -8.29 ± 1.1 | -6.65 ± 2
ACATTTGTTGATACAACCATATATTGATATCTCCACCCATAAATTGATATTGCTCACAACCATATATTGATATCTCCTCTGATCATAGTCAGACCAACATTGCTACGACCCGTATTCGCACCGACAC | -0.713 ± 0.056 | 0.439 ± 0.28
ACATTTGTTGATACAACCATAAAATGATAATTACACCCATAAATTGATAATTATCACACCCATAAATTGATATTGCCTCTTCATGTGAGCCCAGGCAGTAAGTTTACGACATTTTCAGCACCGACAC | -1.91 ± 0.27 | 2.37 ± 0.34
ACATTTGTTGATACAACCCTAAAATGATAATTACACCCATAAATTCATAATTATCACACCCAATTTAACTATAACGCTCTGATCATAGTCAGACCAACATTGCTACGACCCGTATTCGCACCGACAC | -4.59 ± 0.4 | -1.75 ± 0.15
ACATTTGTTGATACAACCATAAAATGATAATTAATAATTCACCCATAAATTGATAATTATCACACCCATAAATTGATATTGCCTCTGATCATAGTCAGACCAACATTGCTACGACCCGTATTCGCAC | -2.69 ± 0.18 | 1.16 ± 0.069
ACATTTGTGGATACAACCATAAAATGATAATTACACCCATAAATTCATCATTATCACACCCAATTTAACTATAACGCTCTGATCATAGTCAGACCAACATTGCTACGACCCGTATTCGCACCGACAC | -2.03 ± 0.49 | 1.48 ± 0.12
ACATTTGTTGATACAACCATAAAATGATAATTAGTGGGTATTTAACTATTAATTCACACCCATAAATTGATATTGCCTCTGATCATAGTCAGACCAACATTGCTACGACCCGTATTCGCACCGACAC | -3.76 ± 0.071 | -3.02 ± 0.35

Sequence | relative integration efficiency (log2) [1] | relative integration efficiency (log2) [2]
ACATTTGTTGATACAACCATAAAATCATAATTACACCCATAAATTGATAATTATCACACCCCATTTAACTATAACGCTCTGATCATAGTCAGACCAACATTGCTACGACCCGTATTCGCACCGACAC | -2.85 ± 0.24 | 1.21 ± 0.17
ACATTTGTTGATACAACCATATATTGATATCTCCAACCATAAAGTGATATTTATCACACCCATAAATTGATATTGCCTCTGATCATAGTCAGACCAACATTGCTACGACCCGTATTCGCACCGACAC | -0.42 ± 0.096 | -0.302 ± 0.25
ACATTTGTTGATACACCCATAAATTGATATTGCCAACCATAAGTTGATATTTTTCACAACCATATATTGATATCTCCTCTGATCATAGTCAGACCAACATTGCTACGACCCGTATTCGCACCGACAC | -0.899 ± 0.17 | 0.0942 ± 0.34
ACATTTGTTGATACAACCATAAAATGATAATTACACCCATAAATTGATAATTATCACAAACATAAATTGATATTGCCTCTGATCATAGTCAGACCAACATTGCTACGACCCGTATTCGCACCGACAC | -0.114 ± 0.033 | 0.898 ± 0.13
ACATTTGTTGATACAACCATCAAATGGTAATTCCACCCCTAAATTGATAATTATCACACCCAATTTAACTATAACGCTCTGATCATAGTCAGACCAACATTGCTACGACCCGTATTCGCACCGACAC | -5.34 ± 0.16 | -2.59 ± 0.29
ACATTTGTTGATACTACCATATAATGATAATAACACCCATAAAATGATAATTATCACACCCAATTTAACTATAACGCTCTGATCATAGTCAGACCAACATTGCTACGACCCGTATTCGCACCGACAC | -1.45 ± 0.32 | 1.9 ± 0.11
ACATTTGATGATACTACCATTTAATGATAATAACACCCATAAAATGATAATTATCACACCCAATTTAACTATAACGCTCTGATCATAGTCAGACCAACATTGCTACGACCCGTATTCGCACCGACAC | -2.14 ± 0.37 | -0.158 ± 0.16
ACATTTGTCGATACAACCATAAAATGATAATTACACCCATAAATTGATAATTATCACCCCCAATTTAACTATAACGCTCTGATCATAGTCAGACCAACATTGCTACGACCCGTATTCGCACCGACAC | -0.936 ± 0.32 | 2.59 ± 0.2
ACATTTGTTTATACAACCATAAAATGATAATTACACCCATAAATTCATTATTATCACACCCAATTTAACTATAACGCTCTGATCATAGTCAGACCAACATTGCTACGACCCGTATTCGCACCGACAC | -3.21 ± 0.16 | -0.961 ± 0.16
ACATTTGTCGATACAACCATAAAATGATAATTACACCCATAAATTGATCATTATCACACCCAATTTAACTATAACGCTCTGATCATAGTCAGACCAACATTGCTACGACCCGTATTCGCACCGACAC | -1.31 ± 0.23 | 2.328 ± 0.013
ACATTTGTGGATACAACCATAAAACGATAATTACACCCATAAATTGATCATTATCACACCCAATTTAACTATAACGCTCTGATCATAGTCAGACCAACATTGCTACGACCCGTATTCGCACCGACAC | -1.43 ± 0.24 | 2.1 ± 0.088
ACATTTGTTGATACAACCATAAAATGATAATTAATAATTATTTATAATCACACCCATAAATTGATAATTATCACACCCATAAATTGATATTGCCTCTGATCATAGTCAGACCAACATTGCTACGACC | -3.38 ± 0.096 | -0.35 ± 0.25
ACATTTGTTGATACAACCATAAAATGATAATTACAACCATAAAATGATAATTATCACAACCATATATTGATATCTCCTCTGATCATAGTCAGACCAACATTGCTACGACCCGTATTCGCACCGACAC | -0.16 ± 0.32 | 0.049 ± 0.22
ACATTTGTTGATACAACCATAAAATGATAATTACACCCATAAATTCATAATTATCACCCCCAATTTAACTATAACGCTCTGATCATAGTCAGACCAACATTGCTACGACCCGTATTCGCACCGACAC | -1.95 ± 0.33 | 1.06 ± 0.079
ACATTTGTCGATACAACCCTAAAATGATAATTACACCCATAAATTGATAATTATCACACCCAATTTAACTATAACGCTCTGATCATAGTCAGACCAACATTGCTACGACCCGTATTCGCACCGACAC | -2.1 ± 0.33 | 1.04 ± 0.3
ACATTTGTTGATACAACCATAAAATGATAATTACAGGGTTAAATTGATAATTATCACACCCATAAATTGATATTGCCTCTGATCATAGTCAGACCAACATTGCTACGACCCGTATTCGCACCGACAC | -1.5 ± 0.12 | -2.54 ± 0.42
ACATTTGTTGATACAACCATAAAATGATCATTACCCCCATAAATTGATAATTATCCCACCCCATTTAACTATAACGCTCTGATCATAGTCAGACCAACATTGCTACGACCCGTATTCGCACCGACAC | -1.91 ± 0.36 | 1.86 ± 0.02
